Measured values taken from paper PMC10274944.

biological target: GST-tagged MERS-CoV papain-like protease (PLpro) (MERS-CoV) (UniProt K9N7C7); assay: BLI

Compared with “ubiquitin variant A46F-K48E (UbV2) (from UniProt P0CG48 1-76) (designed binder)”, “ubiquitin variant A46F-K48E-E64Y (UbV3) (from UniProt P0CG48 1-76) (designed binder)” is 79-fold lower in Kd: 220 nM for the first, 2.77 nM for the second.

Going from “ubiquitin variant A46F-K48E-E64Y-R74N-G75S (UbV5) (from UniProt P0CG48 1-76) (designed binder)” to “ubiquitin variant A46F-K48E-G75R (from UniProt P0CG48 1-76) (designed binder)”, the Kd rises from 1.48 nM to 11400 nM (7700-fold). The first binds more tightly here.
